Measured values taken from patent US20200181263A1 (NUMAB THERAPEUTICS, published 2020).

T1: human IL-23 receptor ECD (human, UniProt Q5VWK5 24-355)
T1 construct: extracellular domain
T1 sequence (looked up): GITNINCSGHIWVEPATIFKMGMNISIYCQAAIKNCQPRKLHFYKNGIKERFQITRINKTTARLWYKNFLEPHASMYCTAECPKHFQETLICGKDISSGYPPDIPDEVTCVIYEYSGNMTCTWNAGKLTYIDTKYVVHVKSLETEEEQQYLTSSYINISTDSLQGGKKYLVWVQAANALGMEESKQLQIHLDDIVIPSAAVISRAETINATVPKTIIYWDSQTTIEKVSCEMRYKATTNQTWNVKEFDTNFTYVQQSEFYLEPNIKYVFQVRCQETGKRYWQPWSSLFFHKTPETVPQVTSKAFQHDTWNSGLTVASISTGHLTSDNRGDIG

T2: cyno CD3 (cyno, UniProt Q95LI5 22-117)
T2 sequence (looked up): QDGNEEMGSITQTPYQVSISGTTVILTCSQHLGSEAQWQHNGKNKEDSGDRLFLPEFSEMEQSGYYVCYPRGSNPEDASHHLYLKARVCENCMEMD


Legend:
[1] = target: T1, human IL-23 receptor ECD; experiment: SPR, target immobilised by amine coupling, binder as analyte
[2] = target: T3, human CD3 gamma-epsilon single-chain (human, UniProt P09693 23-103; P07766 23-118); experiment: as above
T3 construct: Recombinant protein immobilised on the SPR chip

[3] = target: T2, cyno CD3; experiment: as above
[4] = target: T4, human serum albumin (human, UniProt P02768 25-609); experiment: as above
T4 construct: also called HSA

[5] = target: T5, human IL23R IL12Rbeta 1 heterodimer on CHO-K1 cells (human, UniProt Q5VWK5 24-629; P42701 24-662); experiment: cell-based or functional assay
[6] = target: T5, human IL23R IL12Rbeta 1 heterodimer on …; experiment: cell-based or functional assay; remark: listed apart in the source

Kd [1] | Kd [2] | Kd [3] | Kd [4] | NFAT assay EC50 (T-cell activation, 5 h) [5] | EC50 of T-cell activation (NFAT reporter, with HSA), 5 h [6] | EC50 of T-cell activation (NFAT reporter, with HSA), 30 h [6] | Binder
0.036 nM | 11.9 nM | 10.2 nM | 0.482 nM | 46.8 nM | – | – | PRO734 (other, Hetero-dimeric MATCH, anti-parallel; diS in anti-CD3 domain, 11 aa GS-linker) chain 1: DIQMTQSPSSLSASVGDRVTITCQASENIYSFLAWYQQKPGKAPKLLIYSASKLAAGVPSRFSGSGSGTDFTLTISSLQPEDFATYYCQQTNRYSNPDIYNVFGTGTKVTVLGGGGGSGGGGSGGGGSGGGGSEVQLVESGGGLVQPGGSLRLSCAASGIDFNSNYYMCWVRQAPGKGLEWIGCIYVGSHVNTYYANWAKGRFTISRDNSKNTVYLQMNSLRAEDTAVYYCATSGSSVLYFKFWGQGTLVTVSSGGGGSGGGGSDIQMTQSPSSLSASVGDRVTITCQSSQSVFSNNYLAWFQQKPGQSPKRLIYSASTLASGVPSRFSGSGSGTDFTLTISSLQPEDFATYYCLGSYACSSADCYVFGCGTKVTVLGSGGGGSGGGGSDIQMTQSPSSLSASVGDRVTITCQSSESVYSNNQLSWYQQKPGQPPKLLIYDASDLASGVPSRFSGSGSGTDFTLTISSLQPEDFATYYCAGGFSSSSDTAFGGGTKLTVLG chain 2: DIQMTQSPSSLSASVGDRVTITCQASENIYSFLAWYQQKPGKAPKLLIYSASKLAAGVPSRFSGSGSGTDFTLTISSLQPEDFATYYCQQTNRYSNPDIYNVFGTGTKVTVLGGGGGSGGGGSGGGGSGGGGSEVQLVESGGGLVQPGGSLRLSCAASGIDFNSNYYMCWVRQAPGKGLEWIGCIYVGSHVNTYYANWAKGRFTISRDNSKNTVYLQMNSLRAEDTAVYYCATSGSSVLYFKFWGQGTLVTVSSGGGGSGGGGSEVQLVESGGGLVQPGGSLRLSCAASGFSLSSNAMGWVRQAPGKGLEYIGIISVGGFTYYASWAKGRFTISRDNSKNTVYLQMNSLRAEDTATYFCARDRHGGDSSGAFYLWGQGTLVTVSSSGGGGSGGGGSEVQLVESGGGLVQPGGSLRLSCAASGFSLSSYDMSWVRQAPGKCLAWIGASYASGPTYYASWAKGRFTISRDNSKNTVYLQMNSLRAEDTATYFCARGGWTGTSHSNIWGQGTLVTVSS
0.0249 nM | 3.52 nM | 3.19 nM | 0.141 nM | 0.19 nM | 266000 nM | 102000 nM | PRO746 (MATCH) (other, Hetero-dimeric MATCH, anti-parallel, two anti-IL23R scFv modules on a CD3/HSA core; interchain disulfide in the anti-CD3 VL/VH interface; charged core linkers; also called MATCH-4 anti-TAA2xCD3xHSA; heterodimeric MATCH) chain 1: DIQMTQSPSSLSASVGDRVTITCQASENIYSFLAWYQQKPGKAPKLLIYSASKLAAGVPSRFSGSGSGTDFTLTISSLQPEDFATYYCQQTNRYSNPDIYNVFGTGTKVTVLGGGGGSGGGGSGGGGSGGGGSEVQLVESGGGLVQPGGSLRLSCAASGIDFNSNYYMCWVRQAPGKGLEWIGCIYVGSHVNTYYANWAKGRFTISRDNSKNTVYLQMNSLRAEDTAVYYCATSGSSVLYFKFWGQGTLVTVSSGGGGSGGGGSDIQMTQSPSSLSASVGDRVTITCQSSQSVFSNNYLAWFQQKPGQSPKRLIYSASTLASGVPSRFSGSGSGTDFTLTISSLQPEDFATYYCLGSYACSSADCYVFGCGTKVTVLGEPEPEPEPEPEPEPDIQMTQSPSSLSASVGDRVTITCQSSESVYSNNQLSWYQQKPGQPPKLLIYDASDLASGVPSRFSGSGSGTDFTLTISSLQPEDFATYYCAGGFSSSSDTAFGGGTKLTVLG chain 2: DIQMTQSPSSLSASVGDRVTITCQASENIYSFLAWYQQKPGKAPKLLIYSASKLAAGVPSRFSGSGSGTDFTLTISSLQPEDFATYYCQQTNRYSNPDIYNVFGTGTKVTVLGGGGGSGGGGSGGGGSGGGGSEVQLVESGGGLVQPGGSLRLSCAASGIDFNSNYYMCWVRQAPGKGLEWIGCIYVGSHVNTYYANWAKGRFTISRDNSKNTVYLQMNSLRAEDTAVYYCATSGSSVLYFKFWGQGTLVTVSSGGGGSGGGGSEVQLVESGGGLVQPGGSLRLSCAASGFSLSSNAMGWVRQAPGKGLEYIGIISVGGFTYYASWAKGRFTISRDNSKNTVYLQMNSLRAEDTATYFCARDRHGGDSSGAFYLWGQGTLVTVSSKPKPKPKPKPKPKPEVQLVESGGGLVQPGGSLRLSCAASGFSLSSYDMSWVRQAPGKCLAWIGASYASGPTYYASWAKGRFTISRDNSKNTVYLQMNSLRAEDTATYFCARGGWTGTSHSNIWGQGTLVTVSS
0.0337 nM | 10.1 nM | 8.48 nM | 0.303 nM | 0.423 nM | – | – | PRO738 (other, Hetero-dimeric MATCH, anti-parallel; diS in anti-CD3 domain, 15 aa GS-linker) chain 1: DIQMTQSPSSLSASVGDRVTITCQASENIYSFLAWYQQKPGKAPKLLIYSASKLAAGVPSRFSGSGSGTDFTLTISSLQPEDFATYYCQQTNRYSNPDIYNVFGTGTKVTVLGGGGGSGGGGSGGGGSGGGGSEVQLVESGGGLVQPGGSLRLSCAASGIDFNSNYYMCWVRQAPGKGLEWIGCIYVGSHVNTYYANWAKGRFTISRDNSKNTVYLQMNSLRAEDTAVYYCATSGSSVLYFKFWGQGTLVTVSSGGGGSGGGGSDIQMTQSPSSLSASVGDRVTITCQSSQSVFSNNYLAWFQQKPGQSPKRLIYSASTLASGVPSRFSGSGSGTDFTLTISSLQPEDFATYYCLGSYACSSADCYVFGCGTKVTVLGGGGGSGGGGSGGGGSDIQMTQSPSSLSASVGDRVTITCQSSESVYSNNQLSWYQQKPGQPPKLLIYDASDLASGVPSRFSGSGSGTDFTLTISSLQPEDFATYYCAGGFSSSSDTAFGGGTKLTVLG chain 2: DIQMTQSPSSLSASVGDRVTITCQASENIYSFLAWYQQKPGKAPKLLIYSASKLAAGVPSRFSGSGSGTDFTLTISSLQPEDFATYYCQQTNRYSNPDIYNVFGTGTKVTVLGGGGGSGGGGSGGGGSGGGGSEVQLVESGGGLVQPGGSLRLSCAASGIDFNSNYYMCWVRQAPGKGLEWIGCIYVGSHVNTYYANWAKGRFTISRDNSKNTVYLQMNSLRAEDTAVYYCATSGSSVLYFKFWGQGTLVTVSSGGGGSGGGGSEVQLVESGGGLVQPGGSLRLSCAASGFSLSSNAMGWVRQAPGKGLEYIGIISVGGFTYYASWAKGRFTISRDNSKNTVYLQMNSLRAEDTATYFCARDRHGGDSSGAFYLWGQGTLVTVSSGGGGSGGGGSGGGGSEVQLVESGGGLVQPGGSLRLSCAASGFSLSSYDMSWVRQAPGKCLAWIGASYASGPTYYASWAKGRFTISRDNSKNTVYLQMNSLRAEDTATYFCARGGWTGTSHSNIWGQGTLVTVSS
